Values belong to the molecule of their own block, whether it stands above or below them.
Tests used:
[1] = biological target: CheC (Thermotoga maritima) (UniProt Q9X006); assay: ITC; details: cited from earlier work
[2] = biological target: GST-CheD (B. subtilis) (UniProt P40404); assay: pull-down
[3] = biological target: T1, 6xHis-McpC cytoplasmic fragment (wild type, unmodified) (B. subtilis, UniProt P54576 298-655); assay: pull-down
T1 sequence (looked up): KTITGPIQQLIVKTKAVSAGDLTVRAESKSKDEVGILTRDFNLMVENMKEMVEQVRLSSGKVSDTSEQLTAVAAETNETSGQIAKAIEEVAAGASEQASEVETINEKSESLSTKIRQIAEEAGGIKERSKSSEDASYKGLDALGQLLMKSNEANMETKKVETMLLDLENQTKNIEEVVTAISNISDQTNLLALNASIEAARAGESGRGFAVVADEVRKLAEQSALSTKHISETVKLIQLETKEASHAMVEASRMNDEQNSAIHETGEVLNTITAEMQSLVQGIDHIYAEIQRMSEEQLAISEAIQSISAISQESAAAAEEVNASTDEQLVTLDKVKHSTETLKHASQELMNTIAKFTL

Chain of CheC (Thermotoga maritima) (Q9X006 whole entry): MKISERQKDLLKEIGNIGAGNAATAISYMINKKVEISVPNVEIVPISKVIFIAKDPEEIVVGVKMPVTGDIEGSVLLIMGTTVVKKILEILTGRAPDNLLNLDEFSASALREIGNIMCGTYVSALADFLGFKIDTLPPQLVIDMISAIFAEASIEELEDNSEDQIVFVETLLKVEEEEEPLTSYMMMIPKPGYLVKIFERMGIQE

Molecule: CheD (from UniProt Q9X005)
Kd [1]: 1 µM

Kd [2]: 117 µM | percent of chemoreceptor bound [2]: 13.2%
Molecule: Deamidated (Q609E) McpC cytoplasmic chemoreceptor fragment (from UniProt P54576 1-655) (domain or fragment)

Kd [3]: 202 µM
B1: GST-CheD (enzyme, B. subtilis, UniProt P40404 1-166, looked up)
chain: MSTTEAVVIKVGIADVKIARFPDTIRTSGLGSCVGLVLYDKEKQTAGLVHVMLPDSTLSKTAELNRAKYADTAVQTTIDMLIEAGCRKFALKAKLAGGSEMFKFKSTNDLMKIGPRNVLAIKEQLSLFNIPIISEDTGGSSGRTIEFEPKSCMLHIRTVKQGEKTI
